Read-outs that look alike come from different tables or passages of the source.
What was measured:
Assay in all cases: SPR, Fab captured, 37C
C domain of human CD33 = molecular target: T1, C domain of human CD33 (human, UniProt P20138 140-259, limits assumed)
T1 construct: recombinant C domain

[1] = molecular target: T2, human CD33 extracellular domain (human, UniProt P20138 18-259)
T2 construct: soluble monomeric ECD; also called human CD33 ECD; hCD33

V domain of human CD33 [2] = molecular target: T3, V domain of human CD33 (human, UniProt P20138 18-139, limits assumed)
T3 construct: recombinant, fully glycosylated V domain; also called Human CD33 V domain

[3] = molecular target: T4, deglycosylated V domain of human CD33 (human, UniProt P20138 18-139, limits assumed, N-glycans removed by PNGase)
T4 construct: V domain deglycosylated by PNGase before testing; also called deglycosylated V CD33

V domain of human CD33 [4] = molecular target: T3, V domain of human CD33; remark: listed apart in the source
[5] = molecular target: T2, human CD33 extracellular domain; remark: listed apart in the source
[6] = molecular target: T5, cyno CD33 extracellular domain (Cynomolgus/Rhesus (cyno))
T5 construct: soluble monomeric ECD; also called cyno CD33 ECD

[7] = molecular target: T2, human CD33 extracellular domain; remark: listed apart in the source
[8] = molecular target: T2, human CD33 extracellular domain; remark: listed apart in the source
Method: Kinetics and affinity of a series of Fab fragments of anti-CD33 antibodies with different CD33 variants (human CD33 ECD, cyno CD33 ECD, V-domain of human CD33, C-domain or human CD33 and selected CD33 SNPs) were assessed by surface plasmon resonance using Biacore 8K instrument (GE Healthcare). Anti-Fab antibody was immobilized on a CMS chip using standard amine coupling chemistry. CD33 FABs were captured on the anti-Fab chip at a density of ˜100 RU. Solutions containing different concentrations of soluble monomeric CD33 or its domains were injected over the captured FABs and control surfaces at 30 μl/min at 37° C. Surfaces were regenerated between cycles by quick injection of 10 mM glycine, pH 1.8. To obtain kinetic rate constants double-referenced data were fit to a 1:1 interaction model using Biacore 8K Evaluation software (GE Healthcare). The equilibrium binding constant KD was determined by the ratio of binding rate constants kd/kₐ.
Affinity of 29 Fab fragments binding to human and cyno CD33 ECD were assayed by Biacore analysis.

Binder | binding result (C domain of human CD33) | Kd [1] | koff [1] | kon [1] | Kd (V domain of human CD33 [2]) | koff (V domain of human CD33 [2]) | kon (V domain of human CD33 [2]) | Kd [3] | koff [3] | kon [3] | Kd (V domain of human CD33 [4]) | Kd [5] | koff [5] | kon [5] | binding result [6] | Kd [7] | koff [7] | kon [7] | Kd [8] | koff [8] | other results
ADI-10157 Fab (Fab, V domains shown, Fab fragment; also called Ab13) VH: QVQLQESGPGLVKPSETLSLTCTVSGGSISSYYWSWIRQPPGKGLEWIGSIYYSGSTNYNPSLKSRVTISVDTSKNQFSLKLSSVTAADTAVYYCARVGGVYSTIETYGMDVWGQGTTVTVSS VL: EIVMTQSPATLSVSPGERATLSCRASQSVSSNLAWYQQKPGQAPRLLIYGASTRATGIPARFSGSGSGTEFTLTISSLQSEDFAVYYCQQYTVYPPTFGGGTKVEIK | no binding | 2.69 nM | 0.0076 s⁻¹ | 2.82e+06 M⁻¹ s⁻¹ | 134 nM | 0.0151 s⁻¹ | 112000 M⁻¹ s⁻¹ | 63.8 nM | 0.0261 s⁻¹ | 411000 M⁻¹ s⁻¹ | 134 nM | 2.69 nM | 0.0076 s⁻¹ | 2.82e+06 M⁻¹ s⁻¹ | no binding (tested: 100 nM) | 2.69 nM | 0.0076 s⁻¹ | 2.82e+06 M⁻¹ s⁻¹ | 2.69 nM | 0.0076 s⁻¹ | koff (V domain of human CD33 [4]): 0.0151 s⁻¹; kon (V domain of human CD33 [4]): 112000 M⁻¹ s⁻¹
ADI-11826 Fab (Fab, V domains shown, Fab fragment; also called Ab26) VH: EVQLVESGGGLVQPGGSLRLSCAASGFTFPGYWMSWVRQAPGKGLEWVANINQDGSEVYYVDSVKGRFTISRDNAKNSLYLQMNSLRAEDTAVYYCAREANYYGNVGDDYWGQGTLVTVSS VL: DIQMTQSPSSLSASVGDRVTITCRASQSIYNYLNWYQQKPGKAPKLLIYAASSTQSGVPSRFSGSGSGTDFTLTISSLQPEDFATYYCQQAFHVPITFGGGTKVEIK | no binding | 2.63 nM | 0.00463 s⁻¹ | 1.76e+06 M⁻¹ s⁻¹ | 4.38 nM | 0.0225 s⁻¹ | 5.12e+06 M⁻¹ s⁻¹ | 3.69 nM | 0.0198 s⁻¹ | 5.37e+06 M⁻¹ s⁻¹ | 4.38 nM | 2.63 nM | 0.00463 s⁻¹ | 1.76e+06 M⁻¹ s⁻¹ | no binding (tested: 100 nM) | 2.63 nM | 0.00463 s⁻¹ | 1.76e+06 M⁻¹ s⁻¹ | 2.63 nM | 0.00463 s⁻¹ | koff (V domain of human CD33 [4]): 0.0225 s⁻¹; kon (V domain of human CD33 [4]): 5.12e+06 M⁻¹ s⁻¹
ADI-10163 Fab (Fab, V domains shown, Fab fragment; also called Ab17) VH: QVQLQESGPGLVKPSQTLSLTCTVSGGSISSGGYYWSWIRQHPGKGLEWIGSIYYSGSTYYNPSLKSRVTISVDTSKNQFSLKLSSVTAADTAVYYCARDRLDYSYNYGMDVWGQGTTVTVSS VL: DIQMTQSPSSLSASVGDRVTITCRASQSISSYLNWYQQKPGKAPKLLIYGASSLQSGVPSRFSGSGSGTDFTLTISSLQPEDFATYYCQQVYSAPFTFGGGTKVEIK | no binding | 53.5 nM | – | – | – | – | – | 152 nM | – | – | – | 53.5 nM | – | – | no binding (tested: 100 nM) | 53.5 nM | – | – | 53.5 nM | – | –
ADI-10160 Fab (Fab, V domains shown, Fab fragment; also called Ab15) VH: EVQLVESGGGLVQPGGSLRLSCAASGFTFSSYWMSWVRQAPGKGLEWVANINQDGSEKYYVDSVKGRFTISRDNAKNSLYLQMNSLRAEDTAVYYCAREANYYGNVGDDYWGQGTLVTVSS VL: not shown | no binding | 42.2 nM | 0.0269 s⁻¹ | 637000 M⁻¹ s⁻¹ | 206 nM | 0.327 s⁻¹ | 1.59e+06 M⁻¹ s⁻¹ | 133 nM | 0.225 s⁻¹ | 1.7e+06 M⁻¹ s⁻¹ | 206 nM | 42.2 nM | 0.0269 s⁻¹ | 637000 M⁻¹ s⁻¹ | no binding (tested: 100 nM) | 42.2 nM | 0.0269 s⁻¹ | 637000 M⁻¹ s⁻¹ | 42.2 nM | 0.0269 s⁻¹ | koff (V domain of human CD33 [4]): 0.327 s⁻¹; kon (V domain of human CD33 [4]): 1.59e+06 M⁻¹ s⁻¹
ADI-11825 Fab (Fab, V domains shown, Fab fragment; also called Ab25) VH: EVQLVESGGGLVQPGGSLRLSCAASGFTFGGYWMSWVRQAPGKGLEWVANINQDGSEEYYVDSVKGRFTISRDNAKNSLYLQMNSLRAEDTAVYYCAREANYYGNVGDDYWGQGTLVTVSS VL: DIQMTQSPSSLSASVGDRVTITCRASQSIYNYLNWYQQKPGKAPKLLIYAASNLHSGVPSRFSGSGSGTDFTLTISSLQPEDFATYYCQQAFHVPITFGGGTKVEIK | no binding | 1.78 nM | 0.0038 s⁻¹ | 2.13e+06 M⁻¹ s⁻¹ | 3.95 nM | 0.0195 s⁻¹ | 4.93e+06 M⁻¹ s⁻¹ | 3.11 nM | 0.018 s⁻¹ | 5.78e+06 M⁻¹ s⁻¹ | 3.95 nM | 1.78 nM | 0.0038 s⁻¹ | 2.13e+06 M⁻¹ s⁻¹ | no binding (tested: 100 nM) | 1.78 nM | 0.0038 s⁻¹ | 2.13e+06 M⁻¹ s⁻¹ | 1.78 nM | 0.0038 s⁻¹ | koff (V domain of human CD33 [4]): 0.0195 s⁻¹; kon (V domain of human CD33 [4]): 4.93e+06 M⁻¹ s⁻¹
ADI-10164 Fab (Fab, V domains shown, Fab fragment; also called Ab18) VH: QVQLQESGPGLVKPSETLSLTCAVSGYSISSGYYWGWIRQPPGKGLEWIGSIYHSGSTNYNPSLKSRVTISVDTSKNQFSLKLSSVTAADTAVYYCARLPPWFGFSYFDLWGRGTLVTVSS VL: EIVLTQSPATLSLSPGERATLSCRASQSVSSYLAWYQQKPGQAPRLLIYDASNRATGIPARFSGSGSGTDFTLTISSLEPEDFAVYYCQQVDNYPPTFGGGTKVEIK | no binding | 31.5 nM | 0.0101 s⁻¹ | 319000 M⁻¹ s⁻¹ | 286 nM | 0.37 s⁻¹ | 1.29e+06 M⁻¹ s⁻¹ | 143 nM | 0.116 s⁻¹ | 811000 M⁻¹ s⁻¹ | 286 nM | 31.5 nM | 0.0101 s⁻¹ | 319000 M⁻¹ s⁻¹ | no binding (tested: 100 nM) | 31.5 nM | 0.0101 s⁻¹ | 319000 M⁻¹ s⁻¹ | 31.5 nM | 0.0101 s⁻¹ | koff (V domain of human CD33 [4]): 0.37 s⁻¹; kon (V domain of human CD33 [4]): 1.29e+06 M⁻¹ s⁻¹
ADI-10161 Fab (Fab, V domains shown, Fab fragment; also called Ab16) VH: EVQLVESGGGLVQPGGSLRLSCAASGFTFSSYWMSWVRQAPGKGLEWVANINQDGSEKYYVDSVKGRFTISRDNAKNSLYLQMNSLRAEDTAVYYCAREGGDSWYHAFDIWGQGTMVTVSS VL: DIQMTQSPSSVSASVGDRVTITCRASQGISSWLAWYQQKPGKAPKLLIYAASNLQSGVPSRFSGSGSGTDFTLTISSLQPEDFATYYCQQKLSLPLTFGGGTKVEIK | no binding | 20.6 nM | 0.0118 s⁻¹ | 574000 M⁻¹ s⁻¹ | 95.8 nM | 0.124 s⁻¹ | 1.29e+06 M⁻¹ s⁻¹ | 85.6 nM | 0.196 s⁻¹ | 2.29e+06 M⁻¹ s⁻¹ | 95.8 nM | 20.6 nM | 0.0118 s⁻¹ | 574000 M⁻¹ s⁻¹ | no binding (tested: 100 nM) | 20.6 nM | 0.0118 s⁻¹ | 574000 M⁻¹ s⁻¹ | 20.6 nM | 0.0118 s⁻¹ | koff (V domain of human CD33 [4]): 0.124 s⁻¹; kon (V domain of human CD33 [4]): 1.29e+06 M⁻¹ s⁻¹
ADI-11812 Fab (Fab, V domains shown, Fab fragment; also called Ab24) VH: QVQLVQSGAEVKKPGASVKVSCKASGYTFEIYYMHWVRQAPGQGLEWMGIINPSSGSTVYAQKFQGRVTMTRDTSTSTVYMELSSLRSEDTAVYYCARGAGYDDEDMDVWGKGTTVTVSS VL: DIQMTQSPSSVSASVGDRVTITCRASQGIDSWLAWYQQKPGKAPKLLIYAASSLQSGVPSRFSGSGSGTDFTLTISSLQPEDFATYYCQQAHSYPLTFGGGTKVEIK | no binding | 1.23 nM | 0.000486 s⁻¹ | 396000 M⁻¹ s⁻¹ | – | – | – | – | – | – | – | 1.23 nM | 0.000486 s⁻¹ | 396000 M⁻¹ s⁻¹ | no binding (tested: 100 nM) | 1.23 nM | 0.000486 s⁻¹ | 396000 M⁻¹ s⁻¹ | 1.23 nM | 0.000486 s⁻¹ | binding result [3]: no binding; binding result (V domain of human CD33 [4]): no binding
ADI-11802 Fab (Fab, V domains shown, Fab fragment; also called Ab23) VH: QVQLVQSGAEVKKPGASVKVSCKASGYTFSGYYMHWVRQAPGQGLEWMGMINPYGGSTRYAQKFQGRVTMTRDTSTSTVYMELSSLRSEDTAVYYCAREAADGFVGERYFDLWGRGTLVTVSS VL: not shown | no binding | 3.14 nM | 0.00154 s⁻¹ | 490000 M⁻¹ s⁻¹ | 3.2 nM | 0.00435 s⁻¹ | 1.34e+06 M⁻¹ s⁻¹ | 2.65 nM | 0.00417 s⁻¹ | 1.57e+06 M⁻¹ s⁻¹ | 3.2 nM | 3.14 nM | 0.00154 s⁻¹ | 490000 M⁻¹ s⁻¹ | no binding (tested: 100 nM) | 3.14 nM | 0.00154 s⁻¹ | 490000 M⁻¹ s⁻¹ | 3.14 nM | 0.00154 s⁻¹ | koff (V domain of human CD33 [4]): 0.00435 s⁻¹; kon (V domain of human CD33 [4]): 1.34e+06 M⁻¹ s⁻¹
ADI-10173 Fab (Fab, V domains shown, Fab fragment; also called Ab22) VH: QVQLVQSGAEVKKPGASVKVSCKASGYTFTSYYMHWVRQAPGQGLEWMGIINPSGGSTTYAQKFQGRVTMTRDTSTSTVYMELSSLRSEDTAVYYCAREAADGFVGERYFDLWGRGTLVTVSS VL: not shown | no binding | 58.8 nM | – | – | – | – | – | 200 nM | – | – | – | 58.8 nM | – | – | no binding (tested: 100 nM) | 58.8 nM | – | – | 58.8 nM | – | –
